{"source": "paper doi:10.1101/2024.04.22.590578", "biological_target": "SARS-CoV-2 main protease (M^pro), wild type (SARS-CoV-2)", "experiment": "crystal structure"}
{"substance": "SARS-CoV-2 main protease (M^pro), wild type (enzyme)", "values": [{"measurement": "stoichiometry N", "value": 2}]}
